{"source": "paper PMC2120335", "about": "(The Journal of Cell Biology, 1995)", "proteins": {"B1": {"name": "590C, smaller COOH-terminal fragment of scruin (domain or fragment)", "chain": "VIIGTGGVDLRDPMNIAYGRSVFQYHPLKDRWEFFGYMPQPRNYHAAAYYRSAIYITGGYDPDVRTWGEMVATKTTFVYELASKNWTRMGDMRCARSHHSLLVFNDVLYAIGGRDDIGRLVSSVESYDHESNEWTMEKSMPSPRMGMAAVAHGGYIWLLGGLTSMTTEEPPVLDDVLCYDPVFKHWVDGRPLRIGRAFGNAAVCDNKIWLCGGAAPSTDENNYLVSVPAIDVYDEETMEWKQKTSLGCPRHSAIVVALESCLYIAGGVNSHELSATSRNELYMVDNDTIQTVRELPIPLTGMAAVTIPPKCVTFRSESLSIMIRHKVTP"}, "B2": {"name": "454C, COOH-terminal half of scruin (domain or fragment)", "chain": "MQQGDSSGSTMLEGNDRISGRIRTYISGYRPLPPDQDDLSKELVPVSIPFWPPDPDTTDSVFHTVRDQYRNPEEQMGFKHFYTIPRQMDPNLGMLLFMDEDYQHSKKVLGLRSVESVPYYINRFQASGTIQDNTIPVIIGTGGVDLRDPMNIAYGRSVFQYHPLKDRWEFFGYMPQPRNYHAAAYYRSAIYITGGYDPDVRTWGEMVATKTTFVYELASKNWTRMGDMRCARSHHSLLVFNDVLYAIGGRDDIGRLVSSVESYDHESNEWTMEKSMPSPRMGMAAVAHGGYIWLLGGLTSMTTEEPPVLDDVLCYDPVFKHWVDGRPLRIGRAFGNAAVCDNKIWLCGGAAPSTDENNYLVSVPAIDVYDEETMEWKQKTSLGCPRHSAIVVALESCLYIAGGVNSHELSATSRNELYMVDNDTIQTVRELPIPLTGMAAVTIPPKCVTFRSESLSIMIRHKVTP"}}, "target": "the molecule itself", "experiment": "negative-stain electron microscopy + sedimentation assay"}
{"protein": "B1", "values": [{"measurement": "binding result", "value": "binds"}]}
{"protein": "B2", "values": [{"measurement": "binding result", "value": "binds"}]}
